According to publication PMC10372118:

Assays:
Test in all cases: BLI
[1] = target: human ACE2 polymorphism S19P (rs73635825) (human) (UniProt Q9BYF1)
[2] = target: truncated human ACE2 (residues 19-613 with a C-terminal AviTag and 6xHis-tag), biotinylated (human) (UniProt Q9BYF1)
[3] = target: human ACE2 polymorphism E35K (rs1348114695) (human) (UniProt Q9BYF1)
[4] = target: human ACE2 polymorphism K26R (rs4646116) (human) (UniProt Q9BYF1)

| Substance | Kd [1] [nM] | t1/2 [2] | Kd [3] [nM] | Kd [4] [nM] |
| --- | --- | --- | --- | --- |
| SARS-CoV-2 ancestral receptor-binding domain (RBD), recombinant (from UniProt P0DTC2) (domain or fragment) | 14.4 | – | – | – |
| SARS-CoV-2 RBD of Beta (B.1.351) (from UniProt P0DTC2) (domain or fragment) | – | 165 | – | – |
| SARS-CoV-2 RBD of Delta (B.1.617.2) (from UniProt P0DTC2) (domain or fragment) | – | 2.4 min | 43.3 | – |
| SARS-CoV-2 Omicron BA.2 RBD (from UniProt P0DTC2) (domain or fragment) | 4.97 | 2.7 min | – | 5.18 |
